In paper doi:10.1101/577536:

Target: fusion protein containing the GS120 linker
Assay: FRET or BRET

fold shift of the titration midpoint against the WT MBD2 peptide: 30 fold
Substance: V227A MBD2 peptide
